Source: article doi:10.1101/2022.08.17.504273 (bioRxiv, 2022)
Each block holds one binder with its values, some of them ahead of it.

B3: LIS1 (full length human) (natural protein)
chain: MVLSQRQRDELNRAIADYLRSNGYEEAYSVFKKEAELDVNEELDKKYAGLLEKKWTSVIRLQKKVMELESKLNEAKEEFTSGGPLGQKRDPKEWIPRPPEKYALSGHRSPVTRVIFHPVFSVMVSASEDATIKVWDYETGDFERTLKGHTDSVQDISFDHSGKLLASCSADMTIKLWDFQGFECIRTMHGHDHNVSSVAIMPNGDHIVSASRDKTIKMWEVQTGYCVKTFTGHREWVRMVRPNQDGTLIASCSNDQTVRVWVVATKECKAELREHEHVVECISWAPESSYSSISEATGSETKKSGKPGPFLLSGSRDKTIKMWDVSTGMCLMTLVGHDNWVRGVLFHSGGKFILSCADDKTLRVWDYKNKRCMKTLNAHEHFVTSLDFHKTAPYVVTGSVDQTVKVWECR
B4: JIP3^1–560 (domain or fragment)
chain: MMEIQMDEGGGVVVYQDDYCSGSVMSERVSGLAGSIYREFERLIHCYDEEVVKELMPLVVNVLENLDSVLSENQEHEVELELLREDNEQLLTQYEREKALRRQAEEKFIEFEDALEQEKKELQIQVEHYEFQTRQLELKAKNYADQISRLEERESEMKKEYNALHQRHTEMIQTYVEHIERSKMQQVGGNSQTESSLPGRRKERPTSLNVFPLADGTVRAQIGGKLVPAGDHWHLSDLGQLQSSSSYQCPQDEMSESGQSSAAATPSTTGTKSNTPTSSVPSAAVTPLNESLQPLGDYGVGSKNSKRAREKRDSRNMEVQVTQEMRNVSIGMGSSDEWSDVQDIIDSTPELDMCPETRLDRTGSSPTQGIVNKAFGINTDSLYHELSTAGSEVIGDVDEGADLLGEFSVRDDFFGMGKEVGNLLLENSQLLETKNALNVVKNDLIAKVDQLSGEQEVLRGELEAAKQAKVKLENRIKELEEELKRVKSEAIIARREPKEEAEDVSSYLCTESDKIPMAQRRRFTRVEMARVLMERNQYKERLMELQEAVRWTEMIRASRE
B5: dynein light intermediate chain (natural protein)
chain: MAPVGVEKKLLLGPNGPAVAAAGDLTSEEEEGQSLWSSILSEVSTRARSKLPSGKNILVFGEDGSGKTTLMTKLQGAEHGKKGRGLEYLYLSVHDEDRDDHTRCNVWILDGDLYHKGLLKFAVSAESLPETLVIFVADMSRPWTVMESLQKWASVLREHIDKMKIPPEKMRELERKFVKDFQDYMEPEEGCQGSPQRRGPLTSGSDEENVALPLGDNVLTHNLGIPVLVVCTKCDAVSVLEKEHDYRDEHLDFIQSHLRRFCLQYGAALIYTSVKEEKNLDLLYKYIVHKTYGFHFTTPALVVEKDAVFIPAGWDNEKKIAILHENFTTVKPEDAYEDFIVKPPVRKLVHDKELAAEDEQVFLMKQQSLLAKQPATPTRASESPARGPSGSPRTQGRGGPASVPSSSPGTSVKKPDPNIKNNAASEGVLASFFNSLLSKKTGSPGSPGAGGVQSTAKKSGQKTVLSNVQEELDRMTRKPDSMVTNSSTENEA
B10: GST-CC1B (GST-Psc-DCTN1(residues 350-547)-GFP-6xHis) (domain or fragment)
chain: GSDGAASSYQLKQLEEQNARLKDALVRMRDLSSSEKQEHVKLQKLMEKKNQELEVVRQQRERLQEELSQAESTIDELKEQVDAALGAEEMVEMLTDRNLNLEEKVRELRETVGDLEAMNEMNDELQENARETELELREQLDMAGARVREAQKRVEAAQETVADYQQTIKKYRQLTAHLQDVNRELTNQQEASVERQQQ

Experiments:
[1] = molecular target: B10; assay: pull-down
[2] = molecular target: B5; assay: cryo-EM structure
cryo-EM structure = molecular target: the molecule itself; assay: cryo-EM structure
[3] = molecular target: dynactin pointed end complex (ZZ-TEV-Arp11, p62, p25, p27) (human, UniProt Q9NZ32;Q9UJW0-1;Q9BTE1;O00399); assay: SEC
JIP3^1–560 = molecular target: B4; assay: cryo-EM structure
SEC-MALS = molecular target: the molecule itself; assay: SEC-MALS
[4] = molecular target: GST-CC1A/B (GST-Psc-DCTN1(residues 214-547)-GFP-6xHis) (human (by the printed UniProt entry), UniProt Q14203-1 214-547); assay: pull-down
[5] = molecular target: T1, JIP3 RH1 domain (JIP3 1-108) (mouse, UniProt Q9ESN9-5 1-108); assay: pull-down
T1 sequence: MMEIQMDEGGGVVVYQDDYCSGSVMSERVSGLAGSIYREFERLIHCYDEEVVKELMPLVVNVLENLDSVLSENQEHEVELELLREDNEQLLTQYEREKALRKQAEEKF

[6] = molecular target: T2, mouse JIP3^185–505 (JIP3 186-505) (mouse, UniProt Q9ESN9-5 186-505); assay: pull-down
T2 sequence: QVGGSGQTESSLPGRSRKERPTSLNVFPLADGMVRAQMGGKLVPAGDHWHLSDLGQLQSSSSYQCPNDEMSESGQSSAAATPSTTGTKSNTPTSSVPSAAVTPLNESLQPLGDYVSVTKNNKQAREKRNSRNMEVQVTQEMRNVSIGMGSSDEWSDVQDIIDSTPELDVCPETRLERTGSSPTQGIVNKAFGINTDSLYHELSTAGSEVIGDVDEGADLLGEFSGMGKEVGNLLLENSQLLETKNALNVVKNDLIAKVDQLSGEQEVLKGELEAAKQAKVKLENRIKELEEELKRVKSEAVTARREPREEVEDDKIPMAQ

[7] = molecular target: T3, mouse JIP3 186-505_L383A/E386A (mouse, UniProt Q9ESN9-5 186-505, L383A | E386A); assay: pull-down
T3 sequence: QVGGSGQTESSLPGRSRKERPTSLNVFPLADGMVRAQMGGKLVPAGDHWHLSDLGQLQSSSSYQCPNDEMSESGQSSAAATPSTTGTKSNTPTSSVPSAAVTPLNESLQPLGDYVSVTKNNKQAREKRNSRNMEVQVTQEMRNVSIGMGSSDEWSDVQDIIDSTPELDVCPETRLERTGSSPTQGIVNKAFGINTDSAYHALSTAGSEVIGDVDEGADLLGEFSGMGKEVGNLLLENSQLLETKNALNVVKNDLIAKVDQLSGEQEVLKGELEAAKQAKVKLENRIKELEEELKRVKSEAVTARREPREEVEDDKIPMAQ

LIS1 (full length human) = molecular target: B3; assay: pull-down

Sequence of dynactin pointed end complex (ZZ-TEV-Arp11, p62, p25, p27) (Q9NZ32 whole entry, chain 1 of 4): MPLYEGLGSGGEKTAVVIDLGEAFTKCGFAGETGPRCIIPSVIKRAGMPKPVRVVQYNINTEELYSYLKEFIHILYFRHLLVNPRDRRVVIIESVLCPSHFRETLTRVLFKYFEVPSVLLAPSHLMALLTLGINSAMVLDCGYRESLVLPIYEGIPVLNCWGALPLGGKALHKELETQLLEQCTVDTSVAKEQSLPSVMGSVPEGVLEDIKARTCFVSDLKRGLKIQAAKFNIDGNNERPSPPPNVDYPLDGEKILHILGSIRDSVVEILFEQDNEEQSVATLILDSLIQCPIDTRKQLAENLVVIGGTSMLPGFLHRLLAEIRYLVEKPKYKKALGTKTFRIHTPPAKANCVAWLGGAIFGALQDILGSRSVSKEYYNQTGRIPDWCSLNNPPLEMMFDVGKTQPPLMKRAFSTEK
Sequence of dynactin pointed end complex (ZZ-TEV-Arp11, p62, p25, p27) (Q9UJW0 whole entry, chain 2 of 4): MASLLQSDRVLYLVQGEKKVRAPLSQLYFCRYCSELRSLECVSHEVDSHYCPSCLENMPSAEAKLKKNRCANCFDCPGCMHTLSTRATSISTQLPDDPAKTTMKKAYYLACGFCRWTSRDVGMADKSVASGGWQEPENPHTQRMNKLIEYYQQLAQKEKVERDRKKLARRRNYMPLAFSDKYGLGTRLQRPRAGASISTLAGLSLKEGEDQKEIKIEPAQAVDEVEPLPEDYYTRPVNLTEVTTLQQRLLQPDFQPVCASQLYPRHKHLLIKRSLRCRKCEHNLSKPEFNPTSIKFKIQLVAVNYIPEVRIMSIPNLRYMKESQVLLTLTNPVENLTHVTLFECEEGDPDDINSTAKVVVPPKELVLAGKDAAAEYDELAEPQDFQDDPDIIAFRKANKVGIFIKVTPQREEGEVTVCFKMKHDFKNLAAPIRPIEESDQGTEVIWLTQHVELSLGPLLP
Sequence of dynactin pointed end complex (ZZ-TEV-Arp11, p62, p25, p27) (Q9BTE1 whole entry, chain 3 of 4): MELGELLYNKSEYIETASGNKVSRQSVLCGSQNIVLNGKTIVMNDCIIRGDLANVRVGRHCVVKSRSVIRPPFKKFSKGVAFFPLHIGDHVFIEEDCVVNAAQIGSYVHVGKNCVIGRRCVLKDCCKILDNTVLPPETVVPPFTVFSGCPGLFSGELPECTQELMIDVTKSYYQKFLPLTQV
Sequence of dynactin pointed end complex (ZZ-TEV-Arp11, p62, p25, p27) (O00399 whole entry, chain 4 of 4): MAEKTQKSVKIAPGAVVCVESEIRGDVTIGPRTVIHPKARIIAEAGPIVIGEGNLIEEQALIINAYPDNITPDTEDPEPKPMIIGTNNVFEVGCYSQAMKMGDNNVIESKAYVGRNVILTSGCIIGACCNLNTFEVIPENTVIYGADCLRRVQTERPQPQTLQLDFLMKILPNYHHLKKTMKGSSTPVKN

binding result [1]: binds
B1: LIS1-N (residues 1-90) (domain or fragment)
chain: MVLSQRQRDELNRAIADYLRSNGYEEAYSVFKKEAELDVNEELDKKYAGLLEKKWTSVIRLQKKVMELESKLNEAKEEFTSGGPLGQKRD

binding result [2]: binds
B2: JIP3^1–185 (domain or fragment)
chain: MMEIQMDEGGGVVVYQDDYCSGSVMSERVSGLAGSIYREFERLIHCYDEEVVKELMPLVVNVLENLDSVLSENQEHEVELELLREDNEQLLTQYEREKALRKQAEEKFIEFEDALEQEKKELQIQVEHYEFQTRQLELKAKNYADQISRLEERESEMKKEYNALHQRHTEMIQTYVEHIERSKMQ

Binder: B3
binding result (cryo-EM structure): binds

Binder: B4
binding result [3]: binds

Binder: B5
binding result (JIP3^1–560): binds

B6: LIS1^mut (natural protein)
chain: MVASQEARDELNRAIADYLRSNGYEEAYSVFKKEAELDVNEELDKEYAGLLEEEWAAVAELAEEVMELRSKLNEAKEEFTSGGPLGQKRDPKEWIPRPPEKYALSGHRSPVTRVIFHPVFSVMVSASEDATIKVWDYETGDFERTLKGHTDSVQDISFDHSGKLLASCSADMTIKLWDFQGFECIRTMHGHDHNVSSVAIMPNGDHIVSASRDKTIKMWEVQTGYCVKTFTGHREWVRMVRPNQDGTLIASCSNDQTVRVWVVATKECKAELREHEHVVECISWAPESSYSSISEATGSETKKSGKPGPFLLSGSRDKTIKMWDVSTGMCLMTLVGHDNWVRGVLFHSGGKFILSCADDKTLRVWDYKNKRCMKTLNAHEHFVTSLDFHKTAPYVVTGSVDQTVKVWECR
stoichiometry N (SEC-MALS): 2

binding result [1]: binds
binding result [4]: binds
B7: MBP-DIC-N (dynein intermediate chain 1-76) (domain or fragment)
chain: MSDKSELKAELERKKQRLAQIREEKKRKEEERKKKETDQKKEAVAPVQEESDLEKKRREAEALLQSMGLTPESPIV

binding result [5]: binds
Binder: SVQEKKKSTIWQFFSRLFSSSSS (domain or fragment) [GST-JIP3^563–585 (JIP3^helix construct)]

binding result [6]: binds
binding result [7]: binds
B8: human Arf6 (12-175_Q67L) (domain or fragment)
chain: KEMRILMLGLDAAGKTTILYKLKLGQSVTTIPTVGFNVETVTYKNVKFNVWDVGGLDKIRPLWRHYYTGTQGLIFVVDCADRDRIDEARQELHRIINDREMRDAIILIFANKQDLPDAMKPHEIQEKLGLTRIRDRNWYVQPSCATSGDGLYEGLTWLTSNYKS

B9: GCN4-WD40-SNAP (other)
chain: GSGSVKQLEDKVEELLSKNAHLENEVARLKKLVSGGPLGQKRDPKEWIPRPPEKYALSGHRSPVTRVIFHPVFSVMVSASEDATIKVWDYETGDFERTLKGHTDSVQDISFDHSGKLLASCSADMTIKLWDFQGFECIRTMHGHDHNVSSVAIMPNGDHIVSASRDKTIKMWEVQTGYCVKTFTGHREWVRMVRPNQDGTLIASCSNDQTVRVWVVATKECKAELREHEHVVECISWAPESSYSSISEATGSETKKSGKPGPFLLSGSRDKTIKMWDVSTGMCLMTLVGHDNWVRGVLFHSGGKFILSCADDKTLRVWDYKNKRCMKTLNAHEHFVTSLDFHKTAPYVVTGSVDQTVKVWECR
stoichiometry N (SEC-MALS): 2

Binder: B10
binding result (LIS1 (full length human)): binds
